B1: Hammerhead Ribozyme (parent)
chain: ACCGGAUGUGCUUUCCGGUCUGAUGAGUCCGUGAGGACGAAACAG

Variants of: B1
Experiment: self-cleavage, relative activity (ratio to wild type); higher = more cleavage; co-transcriptional

First: ACCGGAUGUGCUUUCCGGUAUGAUGAGUGCGUGAGGACGAAACAG [C20A C29G]
Second: ACCGGGUGUGCUUUCUGGUCUGAUGAGUCCGUGAGGACGAAACAG [A6G C16U]
The self-cleavage of the first is lower: 0.311 for the first, 0.762 for the second.

Compared with ACCCGAUGUACUUUCCGGUCUGAUGAGUCCGUGAGGACGAAACAG [G4C G10A], ACCGGAUGUGCUUUCCGGUCAGAAGAGUCCGUGAGGACGAAACAG [U21A U24A] is lower in self-cleavage: 0.662 for the first, 0.652 for the second.

Going from ACCGGAUGUGCUUUCCGGUCUGAUCAGUCCGUGAGGACGAAACGG [G25C A44G] to ACCGGAUGUGCUUUCUGGUCUGAUGAGUCCGUGAGGACGAAGCAG [C16U A42G], the self-cleavage falls from 0.556 to 0.232.

First: ACCGGAUGUGCUUUGCAGUCUGAUGAGUCCGUGAGGACGAAACAG [C15G G17A]
Second: ACCGGUUGUGCUUUCCGGUCUGAUGAGGCCGUGAGGACGAAACAG [A6U U28G]
The self-cleavage of the first is lower: 0.322 for the first, 0.373 for the second.

Compared with ACCGGAUGUGCUUUCCGGUCUGAUGAGUCCGUGAAGACGAAAGAG [G35A C43G], ACCGGAUGUGCCUUCCGGUGUGAUGAGUCCGUGAGGACGAAACAG [U12C C20G] is lower in self-cleavage: 0.353 for the first, 0.324 for the second.

Compared with ACCGGAUGUGCUUUCCGGUCUGAUGAGUCCGAGCGGACGAAACAG [U32A A34C], ACCGGAUGUACUUUCCGGUCUGAUGAGUCUGUGAGGACGAAACAG [G10A C30U] is higher in self-cleavage: 0.796 for the first, 1.06 for the second.

Going from ACCGGAUGUGCUUUCUGGUCUGAUGAGUCCGUGAGGACGAAACUG [C16U A44U] to ACCGGAUGUGCUUUCCGGUCUUAUGAGUCCGUGAGGACGAAACAA [G22U G45A], the self-cleavage falls from 0.845 to 0.345.

Going from ACCGGCUGUGCUUGCCGGUCUGAUGAGUCCGUGAGGACGAAACAG [A6C U14G] to ACCGGAUGUGGAUUCCGGUCUGAUGAGUCCGUGAGGACGAAACAG [C11G U12A], the self-cleavage rises from 0.508 to 1.1.

Compared with AGGGGAUGUGCUUUCCGGUCUGAUGAGUCCGUGAGGACGAAACAG [C2G C3G], ACCGGAUGAGCUUUCCGGUCUGAUGAGUCCGAGAGGACGAAACAG [U9A U32A] is higher in self-cleavage: 0.353 for the first, 0.964 for the second.

Compared with ACCGGAUGUGCUUUCGGGUCUGAUGAGUCCGUGAGUACGAAACAG [C16G G36U], ACCGGAUGUGCUGUCCGGUCUGAUGAGUCCGUGAGGACGAAACAC [U13G G45C] is higher in self-cleavage: 0.314 for the first, 0.596 for the second.

First: ACCGGAUGUGCCUUCCGGUCUGAUGAGUCCGUGAGGACGAAAUAG [U12C C43U]
Second: ACCGGAAGUGCUUUCCGGUCUGAUGAGUCCGUAAGGACGAAACAG [U7A G33A]
The self-cleavage of the first is lower: 0.486 for the first, 1.45 for the second.

First: ACCGGAUGUGCUUUCCGGUCUAAUGAGUCCGUAAGGACGAAACAG [G22A G33A]
Second: ACCGGAUGUGCUUUCCGGUCUGAUGCGCCCGUGAGGACGAAACAG [A26C U28C]
The self-cleavage of the first is lower: 0.353 for the first, 0.524 for the second.

Compared with ACCGGAUGUGCUUUCCGGGCUGAUGAGUCAGUGAGGACGAAACAG [U19G C30A], UCCGGAUGUGCUUUCCGGUCUGAUGAGUCCGUGAGGAGGAAACAG [A1U C38G] is lower in self-cleavage: 0.376 for the first, 0.33 for the second.

Compared with ACCGGAUGUGCUUUCCGGUCUGAUGAGUCCGUGAAGACUAAACAG [G35A G39U], AGCGGAUGUGCUUUCCGGUCUGAUGAGUCCGUGAGGGCGAAACAG [C2G A37G] is higher in self-cleavage: 0.328 for the first, 0.351 for the second.

Going from ACCGGAUGUGCUUACCGGUCUGAUGAGUCCGUGAGGACGAAACCG [U14A A44C] to ACCGGAUGUGCUCUCCGGUUUGAUGAGUCCGUGAGGACGAAACAG [U13C C20U], the self-cleavage falls from 0.414 to 0.405.

Going from ACCGGAUGUGCUUUCCGGUCUGAUGAGUCCGUGAGGACGAGCCAG [A41G A42C] to ACCGGAUGUGCUUUGCGGUCUGGUGAGUCCGUGAGGACGAAACAG [C15G A23G], the self-cleavage rises from 0.294 to 0.32.

First: ACCGGAUGUGGUUUCCGGUCUGAUGAGUCCGUGAGGACGAGACAG [C11G A41G]
Second: ACCGGAUGUUCUUUCCGGUCUGAUGAGUCCGUGUGGACGAAACAG [G10U A34U]
The self-cleavage of the first is lower: 0.413 for the first, 0.864 for the second.

First: ACCGGAUGUGCUUUCGGGUCUGAUGAGUCCUUGAGGACGAAACAG [C16G G31U]
Second: CCCGGAUGUGCUUUCCGGUCUGAUGAGUCCGUGAGGACGAAACGG [A1C A44G]
The self-cleavage of the first is higher: 1.05 for the first, 0.594 for the second.

Going from ACCUGAUGUGCUUUCCGGUCUGAUGAGUCCGUGAGGACGACACAG [G4U A41C] to ACCGGAUGUGCUUGCCGGUCUAAUGAGUCCGUGAGGACGAAACAG [U14G G22A], the self-cleavage rises from 0.276 to 0.314.

Compared with ACCGGAUAUGCUUUCCGGUCUGAUGAGUCCCUGAGGACGAAACAG [G8A G31C], ACCGGAUGUGCUUUCCAGUCUGAUGAGUCCGUGACGACGAAACAG [G17A G35C] is lower in self-cleavage: 0.889 for the first, 0.548 for the second.

Going from ACCGGAUGUGCUUUCCGGUCUGAUGAGUCCGUGAGUACGAAACAA [G36U G45A] to ACCGAAUGUGCUUUCCGGUCAGAUGAGUCCGUGAGGACGAAACAG [G5A U21A], the self-cleavage rises from 0.452 to 0.57.

Going from ACCGCAUGUGCUUUCCGGUCUGAUGAGUCCGUGAGGCCGAAACAG [G5C A37C] to ACCGGAUGUGCUUUCCUGUCUGAUGAGUCCGUGAGGACGAAUCAG [G17U A42U], the self-cleavage rises from 0.259 to 0.369.

Going from ACCGGAUGUGCUUUCCUGUCUGAUUAGUCCGUGAGGACGAAACAG [G17U G25U] to ACCCGAUGUGCUUUCCGGUCUGUUGAGUCCGUGAGGACGAAACAG [G4C A23U], the self-cleavage falls from 0.37 to 0.314.

First: ACCGGAUGUGCUCACCGGUCUGAUGAGUCCGUGAGGACGAAACAG [U13C U14A]
Second: ACCGGACGUGCUUCCCGGUCUGAUGAGUCCGUGAGGACGAAACAG [U7C U14C]
The self-cleavage of the first is higher: 0.621 for the first, 0.585 for the second.

Compared with ACCGGAUGUGCUUUCCGGUCUGAUGAGUCCGCGAGGACGAAGCAG [U32C A42G], ACCGGAUGUGCAUUCCGGUCUGAUGAGUCCGAGAGGACGAAACAG [U12A U32A] is higher in self-cleavage: 0.364 for the first, 0.698 for the second.

First: ACCGGACGUGCUUUCCGGUCUGAUGAGUCCCUGAGGACGAAACAG [U7C G31C]
Second: GCCGGAUGUGCUUUCCGGUCUGAUGAGUCCGUGAGGACGUAACAG [A1G A40U]
The self-cleavage of the first is higher: 0.803 for the first, 0.458 for the second.

Going from ACCGGAUGUGCUUUCCGGUCUGAUGACUCCGUGUGGACGAAACAG [G27C A34U] to ACCGGAUGUGCUUUCCGGUCUGAUAAGUUCGUGAGGACGAAACAG [G25A C29U], the self-cleavage falls from 0.436 to 0.3.

Going from ACCGGAUGUGCUUUCCGGUCUGAUGAGCCCGUCAGGACGAAACAG [U28C G33C] to ACCGGAGGUGCUUUCCGGUCUGAUGACUCCGUGAGGACGAAACAG [U7G G27C], the self-cleavage falls from 0.906 to 0.763.

With CCCGGAUGUGCUUUCGGGUCUGAUGAGUCCGUGAGGACGAAACAG [A1C C16G] the self-cleavage was 0.351.

Source: the RNAGym collection of RNA variant scans (doi:10.7554/elife.80360)
